Assay: yeast display, Sf9 membrane polyspecificity reagent, FACS + sequencing; frameworks hold sequencing errors
In short: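 Nanobodies from a synthetic yeast display library (Saccharomyces cerevisiae BJ5465), induced 36–48 hours with galactose, were stained 1 hour at 4 °C with 10% biotinylated, detergent-solubilized Sf9 membrane reagent, enriched on streptavidin microbeads, then FACS-sorted. Anti-HA (expression) and streptavidin (reagent binding) fluorescence set low and high (top ~1%) gates. Polyreactivity labels come from the gate of origin. Genes were colony-PCR amplified, MiSeq 2 × 250 sequenced and filtered by CDR length.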

Sequence | polyreactivity (PSR sort gate)
QDQLVESGGGLVQAGGSLRLSCAASGSIFYRYAMGWYRQARGKVREFVAGITYSSGTTYYADSVKGRFTISRDNAKNTVYLQMNSLKPEETAVYYCAAELRSSYYRRAMDYCGQGTQVTVSS | high polyreactivity
QVQLVESGGGLVQAGGSLRLTCAASGSTLKSYAMGWYRQAPGKERELVAAITRSGARTYYADSVQGRFTISRDNAKNTVYFQMNSLKPEDTAVYYCNRVGYQYGSDQEDDYWGQGTQVTVSS | high polyreactivity
QVQLVESGGGLVQAGGSLRLSCAASGRIFRYYVMGWYRQAPGKETELVAAISRSGGTTYYADSVKGRFTISRDNAKNTVYLQMNSLKPEDTAVYYCAAVYGRDPGDYWGQGTQVTVSS | high polyreactivity
QVQLVESGGGLVQAGGSLRLSSAASGSTFRWYAMGWSRQEPGKEREFVAAITWSGGRTYYADSVKGRFTISRDNAKNTVFLQLNSLKPEDTAVYYCNAYDYGYSFNYWGQGTQVTLSS | high polyreactivity
QVQLVETGGGLFQAGGSLRISCAASGSTFYTYAMGWYRQSPGKERELVAAITRRGGRTYYADSVKGRFTISRDNAKNTVYLQMNSLKPEDTAVYYCAADSRTNGYDYWGQGTQVTVSS | high polyreactivity
QVQLEESGGGLVQAGGSLRLTCAASGFIFDDNAMGWYRQAPGKERELVAAISQGAGRTYYADSVKGRFTISRDNAKNTVYLQMNSLKPEDTAVYYCNSGRPKYWYGSKYDYWGQGTQVTVSS | low polyreactivity
QVQLVESGGVLVQAGGSLRLSCAASGSTSYNNAMGWYREAPGKEREFVAAISSNGDRTYYADSVKGRFTISRDNPKNTVYLLMNSLKPEDTAVFYCAVRSWYNYEWGQGTQVTVSS | high polyreactivity
QVQLVESGGGLVQAGGSLRLSCAASGSTFGFNAMGWYRQAPGKERELVAAIDGSAGSTYYADSVKGRFTISRDNAKNTVYLQMNSLKPEDTAVYYCAADIYWFIEYEYWGQGTQVTVSS | low polyreactivity
QVQLVESGGGLVQAGGSLRLSCAASGRTFKHYAMGGYRQAPGKERELVAAITSGGSTYYADSVKGRFTISRDNAKNTVYLQMNSLKPEDTAVYYCNKESYFDTYRRYDSWGQGTQVTVSS | low polyreactivity
QVQLVESGGGLVQAGGSLRLSCAASGITFKGYTMGWYRQAPGTERELVATISRGGRTYADSVKGRFTISRDNAKNTVYLQMNSLKPEDTAVYYCAADKYWAQNDYWGQGTQVTVSS | low polyreactivity
QVQLVESGGGLVQAGGSLRLSCAASGIIFTYAMGWYRQAPGKERELVAAIDWRGGRTYYADTVKGRFTISRDNAKNTVYLEMNSLKPEDTAVYYCAARLPGGTYYWGQGTQVTVSS | high polyreactivity
QVQLVESGGGLVQAGGSLRLICAASGSTYRYYAMGWSRQAPGKERELVAGITGSGGSTYYADSVKGRFTISRDNAKNTVYLQMNSLNPEDTAVYDCATKLRRWRFYAAYDYWGQGTQVTVSS | high polyreactivity
QVQLVESGGGLVQAGGSLRLSCAASGSNYSGYTMGWYRQAPGKERELVAAISYRGGRTYYADSVKGRFTISRDNAKNTVYFLMNSLKPEDTAVYYCNAAPYITRRHDYWGQGTLVTVSS | high polyreactivity
QVQLVESGGGLVQAGGSLPLSCAASGSTFDRNVMGWYRQAPGKERELVAAISRVSSTNYADSVKGRFTISRDNAKNTVNLQMNSLKPEDTAVYSCAADGAGSIMNYWGQGTQVTVSS | low polyreactivity
QVQLVESGGGLVQAGGSLRLSCAASGFIFTPYAMGWYRQAPGKERELVAAISWIGGRTYYADSVKGRFTISRDNAKNTVYLQMHSLKPEDTAVYYCNARTHGWPYSRYYYWGQGTQVTVSS | high polyreactivity
QVQLVESGGGLVQAGGSLRLSCAASGSTFAFYAMGWYRQAPGKERELVAAISRSGGRTYYADSVKGRFTISRDNAKNTVYLQMNSLKPEDTAVYYCAAVFRSGYLRYYYWGQGTQVTVSS | high polyreactivity
QVQLVESGGGLVQAGGSLRLSCAASGFILIQYAMGWYRQAPGKERELVAAITWSDTSTNYADSVKGRFTISRDNAKNTVYLQMNSLKPEDTAVYYCAAYPVRYYNQYDYWGQGTQVTVSS | low polyreactivity
QVQLVESGGGLVQAGGSLRLSCPASGSTFGYYAMGWYRQAPGKERELVAAITYSVGGTYYADSVKGRFTISRDNAKNTVYLQMNSLKPEDTAVYSCNVDYYVPPAGVTRTGDDDYWGQGTQVTVSS | low polyreactivity
QFQLVESGGGLVQAGGSLRLSCAASGNTFINYAMGWYRQATRKEREVVAAISKRGGSTYYADSVKGRFTISRDNAKNTVYLQMNSLKPEDTAVYYCAARLKTYKEGDYCGQGTQVTVSS | high polyreactivity
QVQLVDSGGGLVQAGGSLRLSCAASGFTFTLNAMGWYRQAPGKERELVAGISSGGSTNYADSVKGRFTISRDNAKNTVYLQMNSLKPEDTAVYYCAADRGYVWRYDYWGEGTQVTVSS | low polyreactivity
QVQLVESGGGLVQAGGSLRLSCAASGGTFGVYAMGWYRQAPGKERELVAAIDWDDGNTYYADSVKGRFTLSRDNAKNTVYLQMNSLKPEDTAVYYCAAVVFSRRYWVKFYYWGQGTQVTVSS | high polyreactivity
QVQLVESGGGLVQAGGSLRLSCAASGFTFGRYAMGWYRQAPGKERELVAAISRTGGRTYYADSVKGRFTISRDNAKNTVYLQMNSLKPEDTAVYYCAADKGGTYFNGDSWGQGTLVTVSS | high polyreactivity

Sequence | polyreactivity (PSR sort gate)
QVQLVESGGGLVQAGGSLRLSCAASGSIFYYNVMGWYRQAPGKETELVAAISQSGVRTYYADSVKGRFTISRDNAKNTVYLQMNSLKPEDTAVYYCAAKARRLYASSYDYWGQGTQVTVSS | high polyreactivity
QVQLVESGGGLVQAGGSLRLSCAASGRTFRSYAMGWYRQAPGKERELVAAINTNGGSTYYADSVKGRFTISRDNAKNTVYLQMNSLKPEDTAVYYCRAWAQNQFNYWGQGTQVTVSS | high polyreactivity
QVQLVESGGGLVQAGGSLRLSCAASGFTFTGYAMGWYRQAPGKERELVAAINRSGGTTYYADSVKGRFTISRDNAKNTVYLQMNSLKPEDTAVFYCAAFPSGRHRGDYWGQGTQVTVSS | high polyreactivity
QVQLVESGGGLVQAGGSLRLSCPASGIILTQNAMGWYRQAPGKERELVAAITESGARTYYADSVKGRFTISRDNAKNTVYLQMISLKPEDTAVYSCNAYRYYRGQVYPFYYWGHGTQVTVSS | low polyreactivity
QVHLVESGGGLVQAGGSRRLSCAASGITYRFYTMGWYRQAPGKEREFVAAITYGVGRTDYADSVKGRFTISRDNAKNTVYLQMNSLNPEDTAVYYCAATWGYGYDYWGQGTQVTVSS | high polyreactivity
QVQLVESGGGLVQAGGSLRLSCAASGRTFSAYTMGWYRQAPGKERELVAAITSGTSTYYADSVKGRFTISRDNAKNTVYLQMNSLKPEDTAVYYCNARDSGRWWHIGQSGEDYWGQGTQVTVSS | low polyreactivity
QVQLVESGGGLVQAGGSLRLSCAASGYIFSLNGMGWYRQEPVKERELVAAITVSGGRTYYADSVKGRFTISRDNAKNTVYLQMNSLKPEDTAVYYCAKRGKYSYWPYYKYDYWGQGTQVTVSS | high polyreactivity
QVQLVESGGGIVQAGGSLRLSCAASGRIFYSYAMGWYRQAPGKERELVATISSGGSTNYADSVKGRFTISRDNAKNTVYLQMNSLKPEDTAVYYCGRQSLRYSYVSRDYWGQGSQVTVSS | low polyreactivity
QDQLVESGGGLVQAGGSLRLSCAASGIFPYYAMGGYRQAPGTEREFVAAITRSGGSTYYADSVKGRFTISRDNAKKTVYLQMNSLKPEDTAVYYCNKRYGYTGFSPRYDYWGQGTQVTVSS | low polyreactivity
QVQLVDSGGGLVQAGGSLRLSCAASGSIILLNAMGWYRQAPGKEREMVARIRINGGSTYYADSVKGRFTISRDNAKNTVYLKMNSLKPEDTAVYYCAADDTGPYSNWYDYWGQGTQVTVSS | low polyreactivity
QVQRVESGGGLVQAGGSLRLSSAGSGSIFNIYTMGWYRQAPGKERELVAAISYGGGSTYADSVKGRLTISRDNAKNTVYLQMNSLKPEDTAVYYCNAKRTYHWRWYQYDYWGQGTQVTVSS | high polyreactivity
QVQLVESGGGLVQAGGSLRLSCAASGFIFSFYAMGWYRQAPGKESELVAAITSSGATTYYADSVKGRFTISRDNAKNTVYLQMNSLKPVDTAVYYCNAVYRRDTGYYRYYYWGQGTQVTVSS | high polyreactivity
QVQLVESGGGLVQAGGSLRLSCAASGSTFNEYVMGWYRHAPGKERELVAAITGGGGRTYYADSVKGRFTISRDNAKNTVYLQMNSLKPEDTAVYYCAKRYLFVTYWGFFRYDYWGQGTQVTVSS | low polyreactivity
QVQLVESGGGLVQAGGSLRLSCAASGIIFPTYVMGWYRQAPGKERELVAVISWSGASTYYADSVKGRFTISRDNAKNSVYLQMNSLKPEDTAVYYCAADWWRVEMDYWGQGTQVTVSS | low polyreactivity
QVQLVESGGGLVQAGGSLRLSCAASGRIFPSNVMGWYRQAPGKERELVASISARGGSTYYADSVKGRFTISRDNAKNTGYLQMNSLKPEDTAVYYCHKRRSNGYSQHKLDYWGQGTQVTVSS | low polyreactivity
QVQLVESGGGLVQAGGSLRLSCAASGSTFWDYAMGWYRQAPGKERELVAAISSGGSTNYADSVKGRFTISRDNAKNTVYLQMNSLKPEDTAVYYCAVGYGGYYYWGQGTQVTVSS | high polyreactivity
QVQLVESGGGLVQAGGSLRLSCAASGFIFDRNTMGWYRQAPGKERELVATISSTGTTNYADSVKGRFTISRDNAKNTVYLQMNSLKPEDTAVYYCNAYPRWRYVSYYRSYRYDYWGQGTQVTVSS | high polyreactivity
QVQLVESGGGLVQAGGSLRLSCAASGLIFAHNTMGWYRQATGKERELVAAISATGDGNTYYADSLKGRFTISRDNAKNTVYLQMNSLKPEDTAVYYCNALYYDYYAEYYGESDYWGQGTQVTVSS | low polyreactivity
QVQLVESGGGLVQAGGSLRLTCDASGRTFYQNTMGWYRQAPGKERELVAAISYRVGRTYYADSVKGRFSISSDNAKNTVYLQMNSLKPEDTAVYYCAAGVWWWTIPYEYWGQGSQVTVSS | high polyreactivity
QVQLVESGGGLVQAGGSLRLSCAASGITFATNAMGWYRQAPGKERELVAGITSGGSTYYADSVKGRFTISRDNAKNTVYLQMNSLKPEDTAVYYCAKRYHYWYGTGYDYWGQGTQVTVSS | low polyreactivity
QVQLVESGGGLVQAGGSLRLSCAATGRTFRIYAMGWYRQAPGKEREFVAAITWSGGRTYYADSVKGRFTISRDNAKNTVYLQMNSLKPEDTAVYYCAADPTYLRTLRFGSYDYWGQGTQVTVSS | high polyreactivity

From the nanobody polyreactivity screen of Harvey et al. (2022)
